# Laboratory results taken from patent publication US20260317443 (published 2026).
# B1: 33D03_H1-L4 (antibody, V domains shown)
# VH: QVQLVQSGAEVKKPGASVKVSCKASGYTFTDYYLNWVRQAPGQRLEWMGIINPYNGGTNYSQKFQGRVTITRDTSASTAYMELSSLRSEDTAVYYCASEGLRTWFTYWGQGTLVTVSS
# VL: DIVMTQSPDSLAVSLGERATISCKSSQSLSNSGNQKIYLAWYQQKPGQPPKLLIYGASSRESGVPDRFSGSGSEIDFTLTISSLQAEDVAVYYCQNDHSHPFTFGQGTKLEIK
# B2: 33D03_H3-L1 (antibody, V domains shown)
# VH: QVQLVQSGAEVKKPGASVKVSCKASGYTFTDYYLNWVRQAPGQRLEWMGIINPYNGGTNYSQKFQGRVTITVDKSSSTAYMELSSLRSEDTAVYYCASEGLRTWFTYWGQGTLVTVSS
# VL: DIVMTQSPDSLAVSLGERATINCKSSQSLSNSGNQKIYLAWYQQKPGQPPKLLIYGASSRESGVPDRFSGSGSGTDFTLTISSLQAEDVAVYYCQNDHSHPFTFGQGTKLEIK
# B3: 33D03_H5-L2 (antibody, V domains shown)
# VH: EVQLVQSGAEVKKPGASVKVSCKASGYTFTDYYLNWVRQAPGQRLEWMGIINPYNGGTNYNQRFKGRVTLTVDKSSSTAYMELSSLRSEDTAVYYCASEGLRTWFTYWGQGTLVTVSS
# VL: DIVMTQSPDSLAVSLGERATISCKSSQSLSNSGNQKIYLAWYQQKPGQPPKLLIYGASSRESGVPDRFSGSGSGTDFTLTISSLQAEDVAVYYCQNDHSHPFTFGQGTKLEIK
# Target: human VWF (human)
# Sequence (P04275 whole entry): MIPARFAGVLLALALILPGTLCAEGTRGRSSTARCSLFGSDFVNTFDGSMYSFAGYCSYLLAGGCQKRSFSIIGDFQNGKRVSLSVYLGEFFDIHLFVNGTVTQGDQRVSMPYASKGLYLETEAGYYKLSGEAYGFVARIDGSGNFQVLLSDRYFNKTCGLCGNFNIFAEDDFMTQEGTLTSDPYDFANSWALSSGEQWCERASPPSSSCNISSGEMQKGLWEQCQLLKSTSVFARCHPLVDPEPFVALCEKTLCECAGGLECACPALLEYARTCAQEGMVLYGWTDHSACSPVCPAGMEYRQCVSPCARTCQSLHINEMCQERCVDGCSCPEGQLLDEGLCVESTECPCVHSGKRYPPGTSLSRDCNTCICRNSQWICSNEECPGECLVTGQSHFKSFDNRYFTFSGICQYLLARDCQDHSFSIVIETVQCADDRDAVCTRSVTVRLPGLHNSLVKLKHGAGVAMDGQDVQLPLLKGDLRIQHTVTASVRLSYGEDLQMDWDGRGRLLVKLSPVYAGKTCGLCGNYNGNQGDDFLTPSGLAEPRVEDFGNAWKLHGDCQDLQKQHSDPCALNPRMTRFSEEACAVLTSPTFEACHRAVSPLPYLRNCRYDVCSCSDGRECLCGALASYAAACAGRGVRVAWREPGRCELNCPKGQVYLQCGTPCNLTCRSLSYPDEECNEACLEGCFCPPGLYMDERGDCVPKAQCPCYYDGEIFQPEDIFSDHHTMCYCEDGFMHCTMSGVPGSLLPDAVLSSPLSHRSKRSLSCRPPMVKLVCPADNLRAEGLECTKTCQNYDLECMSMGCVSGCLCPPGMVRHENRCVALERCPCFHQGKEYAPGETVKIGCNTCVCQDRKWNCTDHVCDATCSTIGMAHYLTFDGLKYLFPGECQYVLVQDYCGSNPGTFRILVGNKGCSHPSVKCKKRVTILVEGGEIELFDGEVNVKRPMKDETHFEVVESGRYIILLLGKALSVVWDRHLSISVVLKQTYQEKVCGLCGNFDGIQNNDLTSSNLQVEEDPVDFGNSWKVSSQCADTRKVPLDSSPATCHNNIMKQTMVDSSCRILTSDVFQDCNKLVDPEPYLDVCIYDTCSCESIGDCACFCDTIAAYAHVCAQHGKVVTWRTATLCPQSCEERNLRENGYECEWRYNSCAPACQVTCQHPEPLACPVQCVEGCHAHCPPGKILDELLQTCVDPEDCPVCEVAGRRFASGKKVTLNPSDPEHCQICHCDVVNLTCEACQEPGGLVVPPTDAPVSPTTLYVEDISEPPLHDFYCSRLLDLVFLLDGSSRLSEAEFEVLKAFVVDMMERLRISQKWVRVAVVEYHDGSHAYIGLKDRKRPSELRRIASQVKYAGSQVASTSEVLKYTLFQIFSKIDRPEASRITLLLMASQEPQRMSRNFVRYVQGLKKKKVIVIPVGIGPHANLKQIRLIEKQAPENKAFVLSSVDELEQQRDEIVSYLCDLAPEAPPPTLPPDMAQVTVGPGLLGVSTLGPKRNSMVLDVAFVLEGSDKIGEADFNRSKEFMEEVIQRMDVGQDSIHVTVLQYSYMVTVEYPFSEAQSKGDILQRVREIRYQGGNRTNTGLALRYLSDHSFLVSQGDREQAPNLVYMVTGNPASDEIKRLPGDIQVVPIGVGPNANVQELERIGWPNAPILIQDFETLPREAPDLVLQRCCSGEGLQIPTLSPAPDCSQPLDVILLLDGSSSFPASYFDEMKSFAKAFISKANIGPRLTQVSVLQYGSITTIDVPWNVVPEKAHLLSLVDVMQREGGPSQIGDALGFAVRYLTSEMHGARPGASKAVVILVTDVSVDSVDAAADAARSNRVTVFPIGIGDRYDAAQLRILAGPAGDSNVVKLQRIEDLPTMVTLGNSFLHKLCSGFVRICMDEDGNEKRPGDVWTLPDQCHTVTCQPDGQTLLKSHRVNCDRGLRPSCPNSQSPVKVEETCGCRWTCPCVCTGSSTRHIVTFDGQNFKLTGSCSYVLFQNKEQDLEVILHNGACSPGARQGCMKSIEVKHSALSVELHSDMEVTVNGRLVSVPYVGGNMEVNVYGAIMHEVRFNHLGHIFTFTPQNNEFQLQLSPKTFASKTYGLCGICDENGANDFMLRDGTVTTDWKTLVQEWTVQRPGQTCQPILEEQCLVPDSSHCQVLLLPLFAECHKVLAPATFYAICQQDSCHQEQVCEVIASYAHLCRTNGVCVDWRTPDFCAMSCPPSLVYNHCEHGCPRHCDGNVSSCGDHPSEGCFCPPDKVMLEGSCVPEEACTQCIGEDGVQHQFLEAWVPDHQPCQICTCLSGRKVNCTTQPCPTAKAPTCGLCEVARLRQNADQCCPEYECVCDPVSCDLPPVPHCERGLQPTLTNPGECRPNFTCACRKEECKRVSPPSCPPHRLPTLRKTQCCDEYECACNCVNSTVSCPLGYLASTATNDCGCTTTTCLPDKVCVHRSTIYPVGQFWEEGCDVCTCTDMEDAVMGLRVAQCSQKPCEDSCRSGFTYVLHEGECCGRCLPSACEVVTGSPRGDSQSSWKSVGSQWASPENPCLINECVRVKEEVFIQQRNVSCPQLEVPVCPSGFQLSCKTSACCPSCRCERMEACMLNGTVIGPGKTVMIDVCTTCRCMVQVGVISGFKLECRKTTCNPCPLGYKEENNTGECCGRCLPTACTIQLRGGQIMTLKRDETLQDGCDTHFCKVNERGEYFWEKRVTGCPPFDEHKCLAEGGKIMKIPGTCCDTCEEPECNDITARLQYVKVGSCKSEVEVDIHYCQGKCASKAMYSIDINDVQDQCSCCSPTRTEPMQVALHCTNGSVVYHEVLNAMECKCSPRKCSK
# Test: ELISA
row,Binder,EC50
1,B1,0.054 µg/mL
2,B2,0.0447 µg/mL
3,B3,0.0294 µg/mL
